According to article doi:10.1101/2022.08.20.504624 (bioRxiv, 2022):

B1: Chlamydomonas IFT25_(1-136) (domain or fragment, Chlamydomonas reinhardtii, UniProt B8LIX8 1-136, looked up)
chain: MKDYAREENGGLVVMASCSDERFPPENMLDGKDNTFWVTTGMFPQEFVLRLESCIRVSKITTLSLNVRKLAVEKCDQDKPDQFEKVFEVELANRGDRLQTEVHQVNIRAKYLKFILLQGHGEFATVNRVSVVGGDD
B2: Chlamydomonas IFT27 (natural protein, Chlamydomonas reinhardtii)
chain: MVKKEVKPIDITATLRCKVAVVGEATVGKSALISMFTSKGSKFLKDYAMTSGVEVVVAPVTIPDTTVSVELFLLDTAGSDLYKEQISQYWNGVYYAILVFDVSSMESFESCKAWFELLKSARPDRERPLRAVLVANKTDLPPQRHQVRLDMAQDWATTNTLDFFDVSANPPGKDADAPFLSIATTFYRNYEDKVAAFQDACRNY
B3: Chlamydomonas IFT46_(188-319) (domain or fragment, Chlamydomonas reinhardtii, UniProt A2T2X4 188-319, looked up)
chain: QLRQLSKEAPGAKADMVGRLEHTDENKAKKIQQWIASINDIHKAKPAATVNYSKRMPEIEALMQEWPPEVETFLKTMHMPSGDVELDIKTYARLVCTLLDIPVYDDPVESLHVLFTLYLEFKNNPIFRQHME
B4: GST-tagged CrIFT57_(1-234) (domain or fragment, Chlamydomonas reinhardtii, UniProt Q2XQY7 1-234, looked up)
chain: MSSKRGGRSSLAKAPEEAVNGEAFAPEASPPPPGDDGDAGGEDGGAPAPPPPPATKGGPVAVGRSLEIQTTPDVCMEMLADKLKLLNYEADFCRKKKPYRKPLSRLYFAVPLANSSEQFFYFTSLATWLLGLAGVELPAPKEFDDPNLTCQNILGAVKKLGFAPPSYHPTKLTVGNGKEVVGVLDGLVDFVLERRHHKYSRPAYGNDGQPEEGVQLDDEAEAAAMEGADELAMP
B5: Chlamydomonas IFT74_(128-C) (domain or fragment, Chlamydomonas reinhardtii, UniProt Q6RCE1 128-641, looked up)
chain: GVGRQVLDKNYFMNELRQKRMEIAQVTSNMKSDLEALERKQAQYNSMDKRASDLSKEVKILQEALADYNTVLDKVGSQAPVYVIQQEFAALKDRNEQQRKRVDEVLTERLNLESKAKQAESKMSEIQASMDQRLNSMPPSQRNEYTTLVAEQQQLQADSKRFEEVLDELDKALQASEGELARNPFKQRSLQLQEQIRALTEKKYELTEEERQSKRSPEELRADLMAKIKRDNTEVEQMTQQIRELQDQIKKMEERVKSLGGATSGAAAAEEKANREKFEELLAKERDLNNFMDGFPSRKAAKMQEKQQKEDGIVGVLEKMVKMQGIIGSNLPSQKKYKEMQDELEYKKMQLENTQTTQERLKEELTMRRTELEKIDTLEDKIKLELTQLAERQEAMEKEMGEFGSVEDIQRKANAARERMEGLRSVLLKRKDLLRSIVAERGLKFQAKRAQLQDHNLQVQLEKMEAKLKNLSAGVFEMDEFIKAKESETNYRQLASNIAALVDDLNVHVKKAVV

What was measured:
[1] = target: T1, Chlamydomonas IFT81/74_(128-C) heterodimer within the IFT-B1 nonamer (Chlamydomonas reinhardtii, UniProt Q68RJ5 1-683; Q6RCE1 128-641); test: cross-linking
T1 sequence (looked up) 1: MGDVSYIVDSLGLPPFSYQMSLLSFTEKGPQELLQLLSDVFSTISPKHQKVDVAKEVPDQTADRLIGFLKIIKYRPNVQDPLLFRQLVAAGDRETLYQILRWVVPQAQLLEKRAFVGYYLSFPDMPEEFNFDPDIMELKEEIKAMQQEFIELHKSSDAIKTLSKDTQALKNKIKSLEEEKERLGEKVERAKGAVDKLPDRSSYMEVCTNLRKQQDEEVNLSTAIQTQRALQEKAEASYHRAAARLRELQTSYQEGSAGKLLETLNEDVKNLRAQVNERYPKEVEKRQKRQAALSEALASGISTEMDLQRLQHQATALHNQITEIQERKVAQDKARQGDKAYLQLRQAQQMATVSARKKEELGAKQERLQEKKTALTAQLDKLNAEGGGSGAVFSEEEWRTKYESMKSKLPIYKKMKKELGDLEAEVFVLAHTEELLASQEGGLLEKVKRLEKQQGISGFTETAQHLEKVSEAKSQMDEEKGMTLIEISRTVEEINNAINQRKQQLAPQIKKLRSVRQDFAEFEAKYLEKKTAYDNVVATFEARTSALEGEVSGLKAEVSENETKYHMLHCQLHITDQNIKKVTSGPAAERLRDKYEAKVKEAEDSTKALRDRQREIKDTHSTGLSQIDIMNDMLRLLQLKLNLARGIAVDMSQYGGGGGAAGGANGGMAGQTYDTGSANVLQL
T1 sequence (looked up) 2: B5 chain

Chlamydomonas IFT81 = target: T2, Chlamydomonas IFT81 (Chlamydomonas reinhardtii, UniProt Q68RJ5 1-683); test: cross-linking
T2 sequence (looked up): T1 sequence (looked up) 1

[2] = target: B5; test: cross-linking
CrIFT172_(1-968) = target: T3, CrIFT172_(1-968) (Chlamydomonas reinhardtii, UniProt Q5DM57 1-968); test: pull-down
T3 sequence (looked up): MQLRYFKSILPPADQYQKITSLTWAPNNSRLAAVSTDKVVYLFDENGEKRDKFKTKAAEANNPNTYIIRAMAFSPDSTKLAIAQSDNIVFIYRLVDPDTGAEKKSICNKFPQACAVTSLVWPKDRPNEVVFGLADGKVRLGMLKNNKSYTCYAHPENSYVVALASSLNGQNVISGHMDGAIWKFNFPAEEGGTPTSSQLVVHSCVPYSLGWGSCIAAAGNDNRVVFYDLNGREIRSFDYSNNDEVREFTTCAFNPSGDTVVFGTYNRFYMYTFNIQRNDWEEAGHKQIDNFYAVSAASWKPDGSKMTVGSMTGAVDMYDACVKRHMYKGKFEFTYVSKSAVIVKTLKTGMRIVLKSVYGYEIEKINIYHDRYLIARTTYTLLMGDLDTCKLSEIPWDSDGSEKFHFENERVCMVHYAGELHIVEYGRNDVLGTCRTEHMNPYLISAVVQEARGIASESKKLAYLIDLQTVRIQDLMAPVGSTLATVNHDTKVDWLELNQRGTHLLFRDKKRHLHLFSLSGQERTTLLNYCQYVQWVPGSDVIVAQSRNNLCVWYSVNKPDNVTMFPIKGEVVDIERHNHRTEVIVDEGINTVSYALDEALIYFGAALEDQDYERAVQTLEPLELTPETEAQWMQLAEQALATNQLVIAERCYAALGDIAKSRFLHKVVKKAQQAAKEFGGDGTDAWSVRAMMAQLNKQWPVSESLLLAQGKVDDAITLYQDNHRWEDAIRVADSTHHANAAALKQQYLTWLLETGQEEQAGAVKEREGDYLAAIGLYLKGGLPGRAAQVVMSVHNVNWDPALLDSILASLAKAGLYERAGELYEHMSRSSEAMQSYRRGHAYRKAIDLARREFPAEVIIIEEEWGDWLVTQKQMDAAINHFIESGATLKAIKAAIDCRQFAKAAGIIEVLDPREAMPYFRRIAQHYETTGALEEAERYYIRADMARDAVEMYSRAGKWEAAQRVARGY

Binder | binding result [1] | binding result (Chlamydomonas IFT81) | also measured
B1 | binds | – | –
B2 | binds | – | –
B3 | – | binds | binding result [2]: binds
B4 | – | – | binding result (CrIFT172_(1-968)): binds
B5 | – | binds | –
